Reference: patent publication US20180155451A1 (published 2018)

T1: FcγRIIa R (extracellular domain with a His tag at the C terminus) (human, UniProt P12318 34-217)
T1 construct: extracellular domain; expressed in FreeStyle293 cells; also called FcgRIIa R; FcγRIIa type R; not shown: His tag at the C terminus
T1 sequence (looked up): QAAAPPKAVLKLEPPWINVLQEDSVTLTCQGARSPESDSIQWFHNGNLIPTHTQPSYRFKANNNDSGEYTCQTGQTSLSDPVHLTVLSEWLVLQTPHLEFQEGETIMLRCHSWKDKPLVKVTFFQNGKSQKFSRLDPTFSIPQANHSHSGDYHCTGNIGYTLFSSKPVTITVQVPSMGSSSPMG


Each binder was assayed against T2, FcγRIa (human, UniProt P12314 16-292) (assay: SPR; vs GpH7-B3/GpL16-k0=100).
T2 construct: extracellular domain; also called FcgRI; CD64
T2 sequence (P12314 16-292): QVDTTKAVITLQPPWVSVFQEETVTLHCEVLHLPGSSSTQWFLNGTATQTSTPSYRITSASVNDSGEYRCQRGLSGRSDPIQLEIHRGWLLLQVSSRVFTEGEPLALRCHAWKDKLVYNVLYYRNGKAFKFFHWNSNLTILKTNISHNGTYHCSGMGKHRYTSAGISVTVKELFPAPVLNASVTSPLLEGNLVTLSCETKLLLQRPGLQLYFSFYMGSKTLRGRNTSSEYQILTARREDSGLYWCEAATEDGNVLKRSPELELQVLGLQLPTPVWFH

Row | Ho/Con_1a | Binder
1 | 102 % of control | GpH7-B3 variant E269_04F/GpL16-k0 (antibody, human IgG1, kappa, homodimerized; also called Ho Ab E269_04F) heavy: not shown light: DIVMTQSPLSLPVTPGEPASISCQASESLVHSNRNTYLHWYLQKPGQSPQLLIYKVSNRFSGVPDRFSGSGSGTDFTLKISRVEAEDVGVYYCSQNTHVPPTFGQGTKVEIERTVAAPSVFIFPPSDEQLKSGTASVVCLLNNFYPREAKVQWKVDNALQSGNSQESVTEQDSKDSTYSLSSTLTLSKADYEKHKVYACEVTHQGLSSPVTKSFNRGEC
2 | 95.5 % of control | GpH7-B3 variant A327_07I/GpL16-k0 (antibody, human IgG1, kappa, homodimerized; also called Ho Ab A327_07I) heavy: not shown light: DIVMTQSPLSLPVTPGEPASISCQASESLVHSNRNTYLHWYLQKPGQSPQLLIYKVSNRFSGVPDRFSGSGSGTDFTLKISRVEAEDVGVYYCSQNTHVPPTFGQGTKVEIERTVAAPSVFIFPPSDEQLKSGTASVVCLLNNFYPREAKVQWKVDNALQSGNSQESVTEQDSKDSTYSLSSTLTLSKADYEKHKVYACEVTHQGLSSPVTKSFNRGEC
3 | 93.1 % of control | GpH7-B3 variant A327_06M/GpL16-k0 (antibody, human IgG1, kappa, homodimerized; also called Ho Ab A327_06M) heavy: not shown light: DIVMTQSPLSLPVTPGEPASISCQASESLVHSNRNTYLHWYLQKPGQSPQLLIYKVSNRFSGVPDRFSGSGSGTDFTLKISRVEAEDVGVYYCSQNTHVPPTFGQGTKVEIERTVAAPSVFIFPPSDEQLKSGTASVVCLLNNFYPREAKVQWKVDNALQSGNSQESVTEQDSKDSTYSLSSTLTLSKADYEKHKVYACEVTHQGLSSPVTKSFNRGEC
4 | 94.4 % of control | GpH7-B3 variant A327_03V/GpL16-k0 (antibody, human IgG1, kappa, homodimerized; also called Ho Ab A327_03V) heavy: not shown light: DIVMTQSPLSLPVTPGEPASISCQASESLVHSNRNTYLHWYLQKPGQSPQLLIYKVSNRFSGVPDRFSGSGSGTDFTLKISRVEAEDVGVYYCSQNTHVPPTFGQGTKVEIERTVAAPSVFIFPPSDEQLKSGTASVVCLLNNFYPREAKVQWKVDNALQSGNSQESVTEQDSKDSTYSLSSTLTLSKADYEKHKVYACEVTHQGLSSPVTKSFNRGEC

These binders were tested against T1, FcγRIIa R (extracellular domain with a …) (assay: SPR Biacore, relative binding).

Row | He/Con_2aR | Binder
5 | 109 % of GpH7-A5/GpH7-B3/GpL16-k0 (=100) | GpH7-A5/GpH7-B3 variant S337_07I/GpL16-k0 (antibody, human IgG1, kappa, heterodimerized; mutation in one H chain; also called He Ab) heavy 1: not shown heavy 2: not shown light: DIVMTQSPLSLPVTPGEPASISCQASESLVHSNRNTYLHWYLQKPGQSPQLLIYKVSNRFSGVPDRFSGSGSGTDFTLKISRVEAEDVGVYYCSQNTHVPPTFGQGTKVEIERTVAAPSVFIFPPSDEQLKSGTASVVCLLNNFYPREAKVQWKVDNALQSGNSQESVTEQDSKDSTYSLSSTLTLSKADYEKHKVYACEVTHQGLSSPVTKSFNRGEC
6 | 104 % of GpH7-A5/GpH7-B3/GpL16-k0 (=100) | GpH7-A5/GpH7-B3 variant T335_05P/GpL16-k0 (antibody, human IgG1, kappa, heterodimerized; mutation in one H chain; also called He Ab) heavy 1: not shown heavy 2: not shown light: DIVMTQSPLSLPVTPGEPASISCQASESLVHSNRNTYLHWYLQKPGQSPQLLIYKVSNRFSGVPDRFSGSGSGTDFTLKISRVEAEDVGVYYCSQNTHVPPTFGQGTKVEIERTVAAPSVFIFPPSDEQLKSGTASVVCLLNNFYPREAKVQWKVDNALQSGNSQESVTEQDSKDSTYSLSSTLTLSKADYEKHKVYACEVTHQGLSSPVTKSFNRGEC
7 | 110 % of GpH7-A5/GpH7-B3/GpL16-k0 (=100) | GpH7-A5/GpH7-B3 variant T335_13S/GpL16-k0 (antibody, human IgG1, kappa, heterodimerized; mutation in one H chain; also called He Ab) heavy 1: not shown heavy 2: not shown light: DIVMTQSPLSLPVTPGEPASISCQASESLVHSNRNTYLHWYLQKPGQSPQLLIYKVSNRFSGVPDRFSGSGSGTDFTLKISRVEAEDVGVYYCSQNTHVPPTFGQGTKVEIERTVAAPSVFIFPPSDEQLKSGTASVVCLLNNFYPREAKVQWKVDNALQSGNSQESVTEQDSKDSTYSLSSTLTLSKADYEKHKVYACEVTHQGLSSPVTKSFNRGEC
8 | 109 % of GpH7-A5/GpH7-B3/GpL16-k0 (=100) | GpH7-A5/GpH7-B3 variant S337_16H/GpL16-k0 (antibody, human IgG1, kappa, heterodimerized; mutation in one H chain; also called He Ab) heavy 1: not shown heavy 2: not shown light: DIVMTQSPLSLPVTPGEPASISCQASESLVHSNRNTYLHWYLQKPGQSPQLLIYKVSNRFSGVPDRFSGSGSGTDFTLKISRVEAEDVGVYYCSQNTHVPPTFGQGTKVEIERTVAAPSVFIFPPSDEQLKSGTASVVCLLNNFYPREAKVQWKVDNALQSGNSQESVTEQDSKDSTYSLSSTLTLSKADYEKHKVYACEVTHQGLSSPVTKSFNRGEC
9 | 123 % of GpH7-A5/GpH7-B3/GpL16-k0 (=100) | GpH7-A5/GpH7-B3 variant S324_06M/GpL16-k0 (antibody, human IgG1, kappa, heterodimerized; mutation in one H chain; also called He Ab) heavy 1: not shown heavy 2: not shown light: DIVMTQSPLSLPVTPGEPASISCQASESLVHSNRNTYLHWYLQKPGQSPQLLIYKVSNRFSGVPDRFSGSGSGTDFTLKISRVEAEDVGVYYCSQNTHVPPTFGQGTKVEIERTVAAPSVFIFPPSDEQLKSGTASVVCLLNNFYPREAKVQWKVDNALQSGNSQESVTEQDSKDSTYSLSSTLTLSKADYEKHKVYACEVTHQGLSSPVTKSFNRGEC
10 | 110 % of GpH7-A5/GpH7-B3/GpL16-k0 (=100) | GpH7-A5/GpH7-B3 variant S337_20W/GpL16-k0 (antibody, human IgG1, kappa, heterodimerized; mutation in one H chain; also called He Ab) heavy 1: not shown heavy 2: not shown light: DIVMTQSPLSLPVTPGEPASISCQASESLVHSNRNTYLHWYLQKPGQSPQLLIYKVSNRFSGVPDRFSGSGSGTDFTLKISRVEAEDVGVYYCSQNTHVPPTFGQGTKVEIERTVAAPSVFIFPPSDEQLKSGTASVVCLLNNFYPREAKVQWKVDNALQSGNSQESVTEQDSKDSTYSLSSTLTLSKADYEKHKVYACEVTHQGLSSPVTKSFNRGEC
